The test system of the data set is Escherichia coli TOP10. Description: shrunken log2 fold change of peptide-encoding DNA abundance (4.5 h post-induction vs induction); higher = less antimicrobial activity (less host growth inhibition). The conditions noted are these: time post-induction: 4.5 h; library: site-saturation at positions 5, 18, 19, 20.
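Also: peptides expressed intracellularly from a pBAD plasmid library in pooled LB shake-flask culture, induced with 0.3% L-arabinose, DNA abundance read by NGS, three biological replicates, DESeq2 with apeglm shrinkage.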

Take RRIRHRPPRLPRPRPRPVPCPRP: the “shrunken log2 fold change” value came out at 0.337. To RRIRHRPPRLPRPRPRPLRVPRP belongs 0.298.

Regarding RRIRSRPPRLPRPRPRPQMVPRP, the “shrunken log2 fold change” value is -0.102. As to RRIRMRPPRLPRPRPRPHWPPRP, the “shrunken log2 fold change” value stood at 1.1. To RRIRSRPPRLPRPRPRPWGYPRP belongs -0.226; to RRIRFRPPRLPRPRPRPRVGPRP, 0.24. To RRIRNRPPRLPRPRPRPLQNPRP belongs 0.176; to RRIRCRPPRLPRPRPRPMAMPRP, 0.106; to RRIRARPPRLPRPRPRPWRKPRP, 0.0387. As to RRIRCRPPRLPRPRPRPMSGPRP, the “shrunken log2 fold change” value was determined as 0.198. To RRIRHRPPRLPRPRPRPNCDPRP belongs -0.264. To RRIRSRPPRLPRPRPRPGPRPRP belongs 0.659; to RRIRRRPPRLPRPRPRPVFKPRP, -0.0974; to RRIRMRPPRLPRPRPRPFDEPRP, -0.0062. To RRIRTRPPRLPRPRPRPKQEPRP belongs -0.0429; to RRIRMRPPRLPRPRPRPHENPRP, 0.218; to RRIRMRPPRLPRPRPRPQAEPRP, 3.28. Take RRIRQRPPRLPRPRPRPTFVPRP: the “shrunken log2 fold change” value was -0.692. To RRIRDRPPRLPRPRPRPHMKPRP belongs -0.467; to RRIRRRPPRLPRPRPRPKKPPRP, 0.974. Turning to RRIRFRPPRLPRPRPRPMQIPRP, the “shrunken log2 fold change” value is -0.147. To RRIRTRPPRLPRPRPRPLTVPRP belongs -0.267. To RRIRSRPPRLPRPRPRPIDSPRP belongs -0.0241; to RRIRSRPPRLPRPRPRPRPFPRP, 0.188.

For RRIRKRPPRLPRPRPRPLFMPRP, the “shrunken log2 fold change” value was -0.0207. To RRIRMRPPRLPRPRPRPVPFPRP belongs 0.179; to RRIRMRPPRLPRPRPRPEHAPRP, 2.54.

Take RRIRPRPPRLPRPRPRPPNLPRP: the “shrunken log2 fold change” value is 0.0664. Take RRIRTRPPRLPRPRPRPGWGPRP: the “shrunken log2 fold change” value is 0.343.

With RRIRPRPPRLPRPRPRPHLRPRP, the “shrunken log2 fold change” value amounted to 0.151. Then RRIRHRPPRLPRPRPRPQPAPRP, with -0.0767. As for RRIRNRPPRLPRPRPRPMKYPRP, the “shrunken log2 fold change” value was -0.164. For RRIRMRPPRLPRPRPRPHCYPRP, the “shrunken log2 fold change” value is -0.0522. To RRIRWRPPRLPRPRPRPGSPPRP belongs 0.0119.

In the case of RRIRVRPPRLPRPRPRPLMTPRP, the “shrunken log2 fold change” value is -0.24. To RRIRKRPPRLPRPRPRPYPSPRP belongs 0.0794; to RRIRARPPRLPRPRPRPQYNPRP, -0.334; to RRIRPRPPRLPRPRPRPWMHPRP, 0.0123. Then RRIRSRPPRLPRPRPRPWQVPRP, with 0.00514; and RRIRRRPPRLPRPRPRPDPCPRP, with -0.00607.

In the case of RRIRERPPRLPRPRPRPGDSPRP, the “shrunken log2 fold change” value was -1.02.

As to RRIRSRPPRLPRPRPRPIICPRP, the “shrunken log2 fold change” value is -0.258. Then RRIRWRPPRLPRPRPRPAFPPRP, with 0.446. As to RRIRQRPPRLPRPRPRPDWEPRP, the “shrunken log2 fold change” value stood at 0.0238. Then RRIRSRPPRLPRPRPRPQMYPRP, with -0.159. Then RRIRMRPPRLPRPRPRPNMPPRP, with -0.286. For the sequence RRIRERPPRLPRPRPRPRPMPRP, the “shrunken log2 fold change” value was -0.0942. Then RRIRARPPRLPRPRPRPDRIPRP, with -0.00136; and RRIRIRPPRLPRPRPRPVFIPRP, with -0.472.

Turning to RRIRCRPPRLPRPRPRPFLIPRP, the “shrunken log2 fold change” value was -0.36.

Take RRIRHRPPRLPRPRPRPTFVPRP: the “shrunken log2 fold change” value is -0.152. With RRIRLRPPRLPRPRPRPVVKPRP, the “shrunken log2 fold change” value was -0.166.

Consider RRIRWRPPRLPRPRPRPVQFPRP, for which the “shrunken log2 fold change” value is 0.0316.

Turning to RRIRYRPPRLPRPRPRPINDPRP, the “shrunken log2 fold change” value was -0.0981. As to RRIRQRPPRLPRPRPRPYNDPRP, the “shrunken log2 fold change” value was 0.00408. Then RRIRPRPPRLPRPRPRPRCHPRP, with 0.144. To RRIRRRPPRLPRPRPRPMFKPRP belongs 0.168; to RRIRARPPRLPRPRPRPPNEPRP, 0.716. Take RRIRERPPRLPRPRPRPQNDPRP: the “shrunken log2 fold change” value is -0.551. Then RRIRRRPPRLPRPRPRPCRMPRP, with 0.0963; and RRIRERPPRLPRPRPRPWAKPRP, with -0.015. To RRIRCRPPRLPRPRPRPIHQPRP belongs -0.304; to RRIRTRPPRLPRPRPRPQPRPRP, 0.439. To RRIRLRPPRLPRPRPRPQMMPRP belongs -0.371; to RRIRHRPPRLPRPRPRPRHGPRP, -0.0477. With RRIRTRPPRLPRPRPRPEPWPRP, the “shrunken log2 fold change” value is 0.291.

For the sequence RRIRERPPRLPRPRPRPAHDPRP, the “shrunken log2 fold change” value was -0.181.

As for RRIRERPPRLPRPRPRPCVWPRP, the “shrunken log2 fold change” value stood at 0.0291.

Take RRIRSRPPRLPRPRPRPSVEPRP: the “shrunken log2 fold change” value was -0.0505. To RRIRIRPPRLPRPRPRPGKFPRP belongs -0.0679.

On to RRIRPRPPRLPRPRPRPIRPPRP, for which the “shrunken log2 fold change” value was 0.184.

As for RRIRFRPPRLPRPRPRPNCSPRP, the “shrunken log2 fold change” value was -0.498.

For RRIRARPPRLPRPRPRPTYTPRP, the “shrunken log2 fold change” value was -0.0355. To RRIRLRPPRLPRPRPRPDPHPRP belongs -0.171; to RRIRDRPPRLPRPRPRPESYPRP, 0.0185.

As to RRIRARPPRLPRPRPRPWIKPRP, the “shrunken log2 fold change” value was -0.0328.

As to RRIRGRPPRLPRPRPRPPYAPRP, the “shrunken log2 fold change” value is 0.798. Then RRIRNRPPRLPRPRPRPRGAPRP, with 0.601; and RRIRGRPPRLPRPRPRPNYFPRP, with 0.0394; and RRIRQRPPRLPRPRPRPQRQPRP, with 0.0235. Then RRIRSRPPRLPRPRPRPTISPRP, with -0.655; and RRIRHRPPRLPRPRPRPSIFPRP, with -0.704; and RRIRFRPPRLPRPRPRPVNPPRP, with -0.154. Take RRIRCRPPRLPRPRPRPIFIPRP: the “shrunken log2 fold change” value was -0.339.

For RRIRRRPPRLPRPRPRPHTNPRP, the “shrunken log2 fold change” value was -0.547.

For the sequence RRIRQRPPRLPRPRPRPRGMPRP, the “shrunken log2 fold change” value stood at 0.143. To RRIRIRPPRLPRPRPRPKGTPRP belongs 0.0146. As for RRIRARPPRLPRPRPRPTWLPRP, the “shrunken log2 fold change” value amounted to 0.33. Then RRIRSRPPRLPRPRPRPPLEPRP, with 0.367; and RRIRNRPPRLPRPRPRPIPNPRP, with -0.428.

Take RRIRQRPPRLPRPRPRPLGHPRP: the “shrunken log2 fold change” value came to 0.0124. Then RRIRRRPPRLPRPRPRPFHFPRP, with -0.413; and RRIRTRPPRLPRPRPRPWSYPRP, with -1.86.

Regarding RRIRKRPPRLPRPRPRPADRPRP, the “shrunken log2 fold change” value turned out to be 0.102. On to RRIRHRPPRLPRPRPRPAHTPRP, for which the “shrunken log2 fold change” value was -0.199.

Regarding RRIRVRPPRLPRPRPRPFKFPRP, the “shrunken log2 fold change” value was -0.0599. Then RRIRDRPPRLPRPRPRPPIIPRP, with -0.0464; and RRIRIRPPRLPRPRPRPKTMPRP, with -0.198; and RRIRKRPPRLPRPRPRPICVPRP, with 0.0188.

RRIRIRPPRLPRPRPRPYEDPRP: the “shrunken log2 fold change” value was -0.00133. To RRIRRRPPRLPRPRPRPQNGPRP belongs -0.0551.

Consider RRIRVRPPRLPRPRPRPFLEPRP, for which the “shrunken log2 fold change” value was determined as 0.0733.

Turning to RRIRVRPPRLPRPRPRPNHSPRP, the “shrunken log2 fold change” value is -0.632. To RRIRWRPPRLPRPRPRPHGPPRP belongs 0.0026; to RRIRSRPPRLPRPRPRPVVCPRP, -0.0186.

Consider RRIRERPPRLPRPRPRPANHPRP, for which the “shrunken log2 fold change” value was -0.00846. To RRIRMRPPRLPRPRPRPRITPRP belongs 0.122. To RRIRWRPPRLPRPRPRPWSCPRP belongs -0.169; to RRIRYRPPRLPRPRPRPSEDPRP, -0.123.

For the sequence RRIRCRPPRLPRPRPRPRHIPRP, the “shrunken log2 fold change” value is -0.28. Turning to RRIRSRPPRLPRPRPRPWDIPRP, the “shrunken log2 fold change” value was -0.211.

With RRIRTRPPRLPRPRPRPSYKPRP, the “shrunken log2 fold change” value was -0.594. To RRIRSRPPRLPRPRPRPFNCPRP belongs -0.441. With RRIRIRPPRLPRPRPRPPFDPRP, the “shrunken log2 fold change” value was -0.0876. Then RRIRFRPPRLPRPRPRPELRPRP, with -0.0629; and RRIRMRPPRLPRPRPRPTGEPRP, with 0.0299. To RRIRNRPPRLPRPRPRPPTHPRP belongs 0.0725; to RRIRARPPRLPRPRPRPFDFPRP, 0.00925. Then RRIRKRPPRLPRPRPRPDSQPRP, with 0.0697; and RRIRLRPPRLPRPRPRPFQLPRP, with -0.402; and RRIRTRPPRLPRPRPRPMQQPRP, with 0.065. RRIRMRPPRLPRPRPRPCLQPRP: the “shrunken log2 fold change” value was -0.0178. RRIRIRPPRLPRPRPRPHWHPRP: the “shrunken log2 fold change” value was -0.153. For the sequence RRIRFRPPRLPRPRPRPGQMPRP, the “shrunken log2 fold change” value amounted to 0.172. Then RRIRQRPPRLPRPRPRPPCPPRP, with 0.085.

Values taken from the supplement of paper PMC9112550, “Optimization of the antimicrobial peptide Bac7 by deep mutational scanning” (BMC Biology, 2022).
